B1: AtmiR403a (dsRNA)
RNA 1: UUAGAUUCACGCACAAACUCG
RNA 2: UGUUUUGUGCUUGAAUCUAAUU
modifications: 5'-phosphate
B2: AtmiR168 (dsRNA)
RNA 1: UCGCUUGGUGCAGGUCGGGAA
RNA 2: CCCGCCUUGCAUCAACUGAAU
modifications: 5'-phosphate
B3: NbmiR403a (dsRNA)
RNA 1: UUAGAUUCACGCACAAACUCG
RNA 2: UGUUUGUGCGUGAAUCUGACA
modifications: 5'-phosphate
B4: siR gf698_22 (dsRNA)
RNA 1: UAGUUCAUCCAUGCCAUGUGUA
RNA 2: CACAUGGCAUGGAUGAACUAUA
modifications: 5'-phosphate
B5: siR gf698_21 (dsRNA)
RNA 1: UAGUUCAUCCAUGCCAUGUGU
RNA 2: ACAUGGCAUGGAUGAACUAUA
modifications: 5'-phosphate
B6: NbmiR403b (dsRNA)
RNA 1: UUAGAUUCACGCACAAACUCG
RNA 2: UGUUUGUGCGUGAUUCUGACA
modifications: 5'-phosphate
B7: AtmiR162 (dsRNA)
RNA 1: UCGAUAAACCUCUGCAUCCAG
RNA 2: GGAGGCAGCGGUUCAUCGAUC
modifications: 5'-phosphate
B8: siR gf698_24 (dsRNA)
RNA 1: UAGUUCAUCCAUGCCAUGUGUAAU
RNA 2: UACACAUGGCAUGGAUGAACUAUA
modifications: 5'-phosphate
B9: dsRNA_33 (dsRNA)
RNA 1: CUAAGAUGCUCGCUGCCAAUGAACGACCCUCCCUAA
RNA 2: UUAGGGAGGGUCGUUCAUUGGCAGCGAGCAUCU
modifications: 5'-phosphate
B10: Turnip crinkle virus P38 protein (TCV P38), wildtype (natural protein, UniProt P06663 1-351, looked up)
chain: MENDPRVRKFASDGAQWAIKWQKKGWSTLTSRQKQTARAAMGIKLSPVAQPVQKVTRLSAPVALAYREVSTQPRVSTARDGITRSGSELITTLKKNTDTEPKYTTAVLNPSEPGTFNQLIKEAAQYEKYRFTSLRFRYSPMSPSTTGGKVALAFDRDAAKPPPNDLASLYNIEGCVSSVPWTGFILTVPTDSTDRFVADGISDPKLVDFGKLIMATYGQGANDAAQLGEVRVEYTVQLKNRTGSTSDAQIGDFAGVKDGPRLVSWSKTKGTAGWEHDCHFLGTGNFSLTLFYEKAPVSGLENADASDFSVLGEAAAGSVQWAGVKVAERGQGVKMVTTEEQPKGKWQALRI

For one series, the target named is TCV P38_W274A (Turnip crinkle virus) (UniProt P06663). As to the kind of experiment: native MS.
Usually stoichiometry N stands for the number of molecules, sites or subunits per partner or assembly. In the case of “TCV P38_W274A (from UniProt P06663 1-351) (natural protein)”, the stoichiometry N came to 2.

The next series has as its target T1, TCV P38 (capsid protein, VSR) wild type (Turnip crinkle virus (pTCV cDNA), UniProt P06663 1-351).
T1 sequence: B10 chain
Briefly: EMSA. In general terms: Mobility shift assays separate free from complexed probe on a gel.
In general, Kd refers to the constant that tells how readily two partners part at equilibrium. High values mean a looser complex, low ones a tighter complex. For B1, the affinity, expressed as Kd, was 0.87 ± 0.13 nM.

Molecule B2 gave a Kd of 0.55 ± 0.05 nM.

B3: the equilibrium dissociation constant (Kd) amounted to 0.36 ± 0.05 nM.

B4: the Kd was 0.53 ± 0.07 nM.

Take B5: the Kd was determined as 0.56 ± 0.09 nM.

Take B6: the Kd turned out to be 1.27 ± 0.1 nM.

B7 displayed a dissociation constant (Kd) of 0.3 ± 0.03 nM.

B8: the affinity, expressed as Kd, was 0.44 ± 0.09 nM.

The target of a further series is T1, TCV P38 (capsid protein, VSR) wild type. As to the kind of experiment: EMSA. The source holds these as a separate data set.
B9: the affinity, expressed as Kd, was 0.77 ± 0.05 nM.

Another series has the same target. Briefly: EMSA. This is another data set of the same source.
Take UAGUUCAUCCAUGCCAUGUGU (ssRNA, 5'-phosphate) [ss gf698_21]: the binding result is listed as “no binding”.

Regarding UAGUUCAUCCAUGCCAUGUGUAAU (ssRNA, 5'-phosphate) [ss gf698_24], the binding result is “no binding”.

Another series deals with the molecule itself. Briefly: AUC.
Take B10: the “stoichiometry N” value was found to be 2.

The target of the next series is T1, TCV P38 (capsid protein, VSR) wild type. Briefly: competition.
The term Ki denotes a measure of affinity in units of concentration, obtained from inhibition or displacement. The low end stands for tighter binding, the high end for weaker binding. For B4, the affinity, expressed as Ki, was 0.18 ± 0.05 nM.

B9 yielded a Ki of 0.14 ± 0.03 nM.

Molecule B8 gave a Ki of 0.4 ± 0.1 nM.

The next series has the same target. Briefly: competition. This is another data set of the same source.
Turning to B2, the Ki worked out at 0.95 ± 0.3 nM.

Molecule B4 returned a Ki of 0.57 ± 0.06 nM.

B9 came in with a Ki of 0.07 ± 0.03 nM. This Ki is about 8.1-fold lower than that of the molecule before.

The molecule B5 showed a Ki of 0.7 ± 0.07 nM.

On to B7, for which affinity was put at a Ki of 0.5 ± 0.15 nM.

Molecule B8 registered a Ki of 0.33 ± 0.03 nM.

For the next series the target is unchanged. Briefly: competition. This is another data set of the same source.
For the molecule B2, the Ki was 0.7 ± 0.2 nM.

On to B4, for which the Ki was determined as 0.35 ± 0.1 nM.

B9 displayed a Ki of 0.06 ± 0.01 nM.

The molecule B7 yielded a Ki of 0.33 ± 0.17 nM.

Molecule B8 returned a Ki of 0.33 ± 0.08 nM.

The next series concerns the molecule itself. Briefly: crystal structure.
On to B10, for which the “stoichiometry N” value amounted to 60.

The record behind these values is article doi:10.1101/2025.11.26.690650 (bioRxiv, 2025).
